Numbering of substitutions follows the chain as printed.
T1: non-phosphorylated C-terminal TDP-43 peptide NAGSGSGFNGGFGSSMDSKSSGWGM (human, N-terminally biotinylated)
T1 construct: Synthetic biotinylated peptide captured on streptavidin plates; also called non-phosphorylated TDP-43
T1 peptide: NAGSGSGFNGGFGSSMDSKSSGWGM

B1: anti-TDP43 clone C, full-length human IgG1 format (antibody, V domains shown)
VH: QVQLVQSGAEVKKPGASVKVSCKASGFTFTEYSMHWVRQAPGQGLEWMGGINPNNGGTSYNQKFQGRVTMTRDTSTSTVYMELSSLRSEDTAVYYCARESWGQGTLVTVSS
VL: DIVMTQSPLSLPVTPGEPASISCKSSQSLLHSDGKTYLNWYLQKPGQSPQLLIYLGSNRASGVPDRFSGSGSGTDFTLKISRVEAEDVGVYYCFQGTHFPHTFGGGTKVEIK
notes: Tested as full-length human IgG1
B2: anti-TDP43 clone I, full-length human IgG1 format (antibody, V domains shown)
VH: B1 VH with S59I
VL: B1 VL with F94M
notes: as for B1
B3: anti-TDP43 clone G, full-length human IgG1 format (antibody, V domains shown)
VH: B1 VH with R98S
VL: B1 VL with G56V, N58K, R59L, A60K, F94M
notes: as for B1
B4: anti-TDP43 clone O, full-length human IgG1 format (antibody, V domains shown)
VH: QVQLVQSGAEVKKPGASVKVSCKASGYTFTKYWMHWVRQAPGQGLEWMGEINPKNGRTNYNQKFQGRVTMTRDTSTSTVYMELSSLRSEDTAVYYCWRYMDYWGQGTLVTVSS
VL: DIVMTQSPLSLPVTPGEPASISCRSSQSLLHSNGYNYLDWYLQKPGQSPQLLIYKVSNRFSGVPDRFSGSGSGTDFTLKISRVEAEDVGVYYCLQHTHWPPTFGGGTKVEIK
notes: as for B1
B5: anti-TDP43 clone X, full-length human IgG1 format (antibody, V domains shown)
VH: B4 VH with K31S, Y32H, W33Y, M34L, E50I, K54S
VL: B4 VL with K55E
notes: as for B1
B6: anti-TDP43 clone C, scFv format (scFv)
scFv: QVQLVQSGAEVKKPGASVKVSCKASGFTFTEYSMHWVRQAPGQGLEWMGGINPNNGGTSYNQKFQGRVTMTRDTSTSTVYMELSSLRSEDTAVYYCARESWGQGTLVTVSSGGGGSGGGGSGGGGSDIVMTQSPLSLPVTPGEPASISCKSSQSLLHSDGKTYLNWYLQKPGQSPQLLIYLGSNRASGVPDRFSGSGSGTDFTLKISRVEAEDVGVYYCFQGTHFPHTFGGGTKVEIK
B7: anti-TDP43 clone I, scFv format (scFv)
scFv: B6 scFv with S59I, F220M
notes: also called VecTab I (as AAV5.2-encoded scFv)
B8: anti-TDP43 clone B, scFv format (scFv)
scFv: B6 scFv with Y32L, G182A, N184R
notes: also called VecTab B (as AAV5.2-encoded scFv)
B9: anti-TDP43 clone G, scFv format (scFv)
scFv: B6 scFv with R98S, G182V, N184K, R185L, A186K, F220M
notes: also called VecTab G (as AAV5.2-encoded scFv)
B10: anti-TDP43 clone S, scFv format (scFv)
scFv: QVQLVQSGAEVKKPGASVKVSCKASGYTFTKYWMHWVRQAPGQGLEWMGEINPSNGRTNYPQKFQGRVTMTRDTSTSTVYMELSSLRSEDTAVYYCWRYMDYWGQGTLVTVSSGGGGSGGGGSGGGGSDIVMTQSPLSLPVTPGEPASISCRSSQSLLHSNGYNYLDWYLQKPGQSPQLLIYKVSNRFTGVPDRFSGSGSGTDFTLKISRVEAEDVGVYYCMQHTHWPPAFGGGTKVEIK
notes: also called VecTab S (as AAV5.2-encoded scFv)
B11: anti-TDP43 clone X, scFv format (scFv)
scFv: B10 scFv with K31S, Y32H, W33Y, M34L, E50I, P61N, K183E, T189S, M222L, A230T

Molecular target: T1, non-phosphorylated C-terminal TDP-43 …
Assay: ELISA, biotinylated peptide on streptavidin plate, IgG1 format, anti-human IgG1 HRP
Protocol: (§1) The ability of clones to bind phosphorylated TDP-43 and/or non-phosphorylated TDP-43 was assessed using N-terminally biotinylated TDP-43 peptides having the following sequences: […] (SEQ ID NO: 218; non-phosphorylated); […] {PSER} SGWGM (SEQ ID NO: 219; phosphorylated S409); […] {PSER} GWGM (SEQ ID NO: 220; phosphorylated S410); and […] {PSER} {PSER} GWGM (SEQ ID NO: 221; phosphorylated S409/S410). Peptides were dissolved in 100% DMSO, aliquoted, and stored in −80° C. before use. Wells were incubated with 100 μL (5 μg/mL) of the peptides on streptavidin plates overnight at 4° C. The plates were then washed 3× in PBST wash buffer. Antibody clones B, C, G, I, O, S, U, and X, and non-binding controls (VRC07 for full-length IgG, and anti-methamphetamine clone 6H4 as control for the scFv experiments) were made in full-length human IgG₁ and scFv formats (IpA), and dilutions were prepared in blocking buffer (2% BSA). 100 μL/well of the dilutions were added to coated plates and the plates were incubated at RT for 1 hour. The plates were subsequently washed 3× with 250 μL/well wash buffer. 100 μL/well of primary antibody CEN63-C13 Rb-a-G4S (IpA) diluted in blocking buffer (2 μg/ml) was added and the plates were incubated for 1 hour at RT followed by 3× washing in PBST. For detection, 100 μL/well secondary antibodies (goat anti human IgG₁ HRP (Jackson ImmunoResearch) or goat anti-rabbit HRP for scFv (Promega)) diluted in blocking buffer (1:5000) was added to the wells and the plates were incubated for 1 hour at RT. The plates were subsequently washed 3× and 100 μL/well of TMB ready solution was added to the wells, followed by 3-4 minutes incubation in the dark. The reaction was stopped with 1M H₂SO₄ added to the wells (100 μL/well), and absorption measured on a GloMax plate reader (Promega) at […].
B1: binds. B2: binds. B3: binds. B4: binds. B5: binds.

Molecular target: T1, non-phosphorylated C-terminal TDP-43 …
Assay: ELISA, biotinylated peptide on streptavidin plate, scFv format, rabbit anti-G4S and anti-rabbit HRP
Protocol: as §1
B6: binds. B7: binds. B8: binds. B9: binds.

Molecular target: T1, non-phosphorylated C-terminal TDP-43 …
Assay: ELISA, biotinylated peptide on streptavidin plate, scFv format, rabbit anti-G4S and anti-rabbit HRP; profile referred to: less efficient at binding non-phosphorylated TDP-43
Protocol: as §1, with “100 μL/well of primary antibody CEN63-C13 Rb-a-G4S (IpA) diluted in blocking buffer (2 μg/ml) was added and the plates were incubated for 1 hour at RT followed by 3× washing in PBST. For detection, 100 μL/well secondary antibodies (goat anti human IgG₁ HRP (Jackson ImmunoResearch) or goat anti-rabbit HRP for scFv (Promega)) diluted in blocking buffer (1:5000) was added to the wells and the plates were incubated for 1 hour at RT.” left out
B10: binds. B11: binds.

Reference: patent publication US20260176307A1 (VECTORY THERAPEUTICS B V, published 2026)
